The target in experiment [1] is photoactivated bovine rhodopsin (bovine) (UniProt P02699).
Experiment [2] has the same target. The source holds these as a separate data set.
Experiment [3] has as its target P23H bovine opsin (bovine) (UniProt P02699).

B1: Nb2 (llama nanobody against bovine rhodopsin) (VHH)
VHH: QVQLVESGGGLVQPGGSLRLSCAASGFTFSKYAMNWVRQPPGKGLEWVSGIRPSGDNPTYADSVEGRFTIIRDNDKKMVYLQMTSLKTEDTAVYYCTRGYGTMTIEGQGTQVTVSS
With B1, the UV-Vis decay of A478 nm after addition of 5 mM hydroxylamine, plateau against bRho* alone in experiment [1] turned out to be 4 times. The intrinsic Trp fluorescence at 330 nm after illumination (Meta II decay, release of retinal) in experiment [2] was 3 fold. Moreover, the opsin level by western blot (1D4) in HEK293S cells co-expressing Nb2 intracellularly, against the non-binding Nb16 control in experiment [3] is 2 fold.

The record behind these values is paper PMC10457330.
